Patent publication US7109167
No end group written: not given here. Oregon Green (5-isomer) = Oregon Green fluorescent label, 5-isomer

Experiments:
[1] = target: T1, NP-1/Fc (Neuropilin-1/Fc, R&D Systems); assay: competition of 125I-VEGF165 binding to plate-coated NP-1/Fc
T1 construct: Bought reagent; also called Npn-1
Method: An assay buffer consisting of Hank's Balanced Salt Solution (HBSS), 25 mM HEPES, and 0.1% BSA, pH 7.4 was used, and for all experiments, Assay volume per well was 75 µl. Plates (Nunc MaxiSorp white opaque Microtiter plate [C-bottom, 437796]) were coated by incubating the wells with 75 µl of a solution containing 3 µlg/mL NP-1/Fc in D-PBS/0.1% NaAzide overnight at 4° C. after covering with sealing tape (Dynex, VWR Cat. No. 62402-931). The next day all wells, even control wells lacking NP-1/Fc, were blocked 2 hrs with blocking buffer (1% BSA in D-PBS with 0.05% v/v Tween-20) then washed 4× with PBST (D-PBS/0.05% v/v Tween-20) before starting the assay. All points were derived from triplicate wells, and for each set of replicates in NP-1/Fc-coated wells, a companion set in the absence of the receptor was included. […] After addition of the appropriate solutions, microtiter plates were incubated at 4° C. for 2 hours. Following the incubation, plates were hand-washed 5 times with D-PBS containing 0.05% Tween-20 and 0.1% BSA. The plates were blotted dry and 25 µl deionized water and 100 µl scintillation fluid (Optiphase SuperMix, Wallac) were added to each well.

[2] = target: T1, NP-1/Fc (Neuropilin-1/Fc, R&D Systems); assay: fluorescence polarization competition against labeled BRU-326 on NP-1/Fc
[3] = target: T1, NP-1/Fc (Neuropilin-1/Fc, R&D Systems); assay: fluorescence polarization, labeled ligand (5-20 nM) titrated with NP-1/Fc, 37 °C
Method: FP values (mP) for each substrate was measured by titrating the ligand (5–20 nM) with receptor protein using a Jolley Research and Consulting FPM-1 fluorescence Polarization analyzer. In each of these experiments the observed polarization values were plotted against receptor concentration. The mP values for 100% binding of tracer labeled ligand to receptor protein was calculated using the software provided by the vendor.
Figure 3: FIG. 3: Binding of TKPPR (SEQ ID NO: 2) derivatives with NP-1/Fc by Fluorescence Polarization. The indicated Oregon Green-labeled derivatives were incubated with increasing concentrations of NP-1 and polarization was measured. […] Figure 4: FIG. 4: Binding of TKPPR (SEQ ID NO: 2) derivatives with KDR-Fc by FP.

T1 sequence (Q9QWJ9 22-855): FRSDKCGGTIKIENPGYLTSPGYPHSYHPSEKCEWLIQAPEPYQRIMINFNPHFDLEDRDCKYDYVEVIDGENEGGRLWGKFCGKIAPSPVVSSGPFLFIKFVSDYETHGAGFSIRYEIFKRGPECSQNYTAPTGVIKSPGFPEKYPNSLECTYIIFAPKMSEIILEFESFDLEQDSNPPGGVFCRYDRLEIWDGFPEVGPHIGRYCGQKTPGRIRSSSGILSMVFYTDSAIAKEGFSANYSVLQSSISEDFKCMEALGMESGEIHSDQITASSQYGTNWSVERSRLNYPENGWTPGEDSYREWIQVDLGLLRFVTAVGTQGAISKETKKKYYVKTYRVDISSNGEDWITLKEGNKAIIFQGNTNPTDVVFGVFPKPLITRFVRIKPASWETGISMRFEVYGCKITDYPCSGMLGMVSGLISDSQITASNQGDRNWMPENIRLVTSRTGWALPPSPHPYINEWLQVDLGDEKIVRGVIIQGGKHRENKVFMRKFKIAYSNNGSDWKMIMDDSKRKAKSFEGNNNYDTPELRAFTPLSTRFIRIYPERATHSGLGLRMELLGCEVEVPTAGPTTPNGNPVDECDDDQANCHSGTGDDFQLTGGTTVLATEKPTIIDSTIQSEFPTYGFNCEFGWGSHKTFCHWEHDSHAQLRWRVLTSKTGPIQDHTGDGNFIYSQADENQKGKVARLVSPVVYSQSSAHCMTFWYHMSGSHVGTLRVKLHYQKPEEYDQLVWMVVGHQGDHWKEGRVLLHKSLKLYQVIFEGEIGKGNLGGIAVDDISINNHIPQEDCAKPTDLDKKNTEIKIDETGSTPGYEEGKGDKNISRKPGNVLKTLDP

Binder	IC50 [1]	IC50 [2]	Kd [3]
TKPPR-OH (also called BRU-95; TKPPR-OH) [TKPPR (L-threonyl-L-lysyl-L-prolyl-L-prolyl-L-arginine), free monomeric peptide]	43000 nM	80000 nM	–
{Oregon Green (5-isomer)}-GTKPPR-OH (also called OG-TKPPR; OG-TKPPR monomer) [BRU-239, Oregon Green (5-isomer)-GTKPPR-OH]	30000 nM	–	–
TKPPR (not fully specified (N-terminus); printed as OG-(TKPPR)2; also: dimer on branched scaffold with one Oregon Green label) [TKPPR dimer BRU-317, OG-(TKPPR)2]	3000 nM	–	–

Other lines, results leading:

IC50 [1]	IC50 [2]	Kd [3]	Binder
0.5 nM	200 nM	–	VEGF165 (ligand, UniProt P15692-4 27-191, looked up, 125I label on the radioligand form, Labelled and unlabelled forms and the different suppliers are kept as one molecule; also called unlabeled VEGF165) APMAEGGGQNHHEVVKFMDVYQRSYCHPIETLVDIFQEYPDEIEYIFKPSCVPLMRCGGCCNDEGLECVPTEESNITMQIMRIKPHQGQHIGEMSFLQHNKCECRPKKDRARQENPCGPCSERRKHLFVQDPQTCKCSCKNTDSRCKARQLELNERTCRCDKPRR
130 nM	–	25 to 50 nM	TKPPR-OH (not fully specified (N-terminus); printed as OG-(TKPPR)4; also: tetramer: four TKPPR chains joined via branched tetra-acid scaffold, free C-terminal Arg on each arm; also called tetrameric TKPPR) [TKPPR tetramer BRU-326, OG-(TKPPR)4]
